Km and kcat data for one protein are collected here from patent US9198909B1, “Materials and methods for inhibiting mamalian S-nitrosoglutathione reductase” (Indiana University Research and Technology Corporation, priority 2007, dated 2015).

Substrate in the series: CCCCCCCCO
Kind of series: GSNOR substrate kinetics with octanol. Format: biochemical, human. Conditions: other: octanol as GSNOR substrate; pH 10.0. As for the experimental part:
GSNOR is an alcohol dehydrogenases and like other members of ADH family, is capable of oxidizing and reducing primary alcohols and aldehydes with the help of a molecule of NAD(H). Octanol was chosen as the substrate in the initial screening assay as it is bulky like GSNO, but has 200-fold higher KM value (1 mM) and a kcat value (200 min-1) that is more than 2 order of magnitude lower than that of GSNO. This allows the initial velocity conditions to prevail for a period up to 10 min (data not shown) and it enables conducting a large number of concurrent assays in a384 well plate format. The pH of the assay was adjusted to pH 10 in order to get significant rate of oxidation of octanol in the absence of compounds. The screening for GSNOR inhibitors was performed in the presence of saturating concentration of NAD^+ and an un-saturating concentration of octanol thereby increase the probability of identifying compounds that bind, only or primarily in the GSNO binding site of GSNOR. This was deemed desirable as there are many dehydrogenases inside the cells and compounds binding in the coenzyme binding site are more likely to be nonspecific inhibitors of GSNOR, than compounds that bind primarily to the form of GSNOR that binds GSNO.

B1: GSNOR (Homo sapiens) (protein)
chain: MANEVIKCKAAVAWEAGKPLSIEEIEVAPPKAHEVRIKIIATAVCHTDAYTLSGADPEGCFPVILGHEGAGIVESVGEGVTKLKAGDTVIPLYIPQCGECKFCLNPKTNLCQKIRVTQGKGLMPDGTSRFTCKGKTILHYMGTSTFSEYTVVADISVAKIDPLAPLDKVCLLGCGISTGYGAAVNTAKLEPGSVCAVFGLGGVGLAVIMGCKVAGASRIIGVDINKDKFARAKEFGATECINPQDFSKPIQEVLIEMTDGGVDYSFECIGNVKVMRAALEACHKGWGVSVVVGVAASGEEIATRPFQLVTGRTWKGTAFGGWKSVESVPKLVSEYMSKKIKVDEFVTHNLSFDEINKAFELMHSGKSIRTVVKI
With B1, the Michaelis-Menten constant (Km) worked out at 1000 µM and the kcat amounted to 3.33 s⁻¹.

Usually Km stands for the concentration of substrate that gives half-maximal velocity. Broadly, the kcat is the number of substrate molecules converted per active site and unit of time at saturation.
